# Results: patent publication US12065673B2, “Method for obtaining human brown/beige adipocytes” (ETABLISSEMENT FRANCAIS DU SANG, priority 2015, dated 2024)
# What was measured:
# Assay type in all cases: cell-based, human
# [1] = system: adipogenic progenitor cells (pAdSCs); experiment: Adipogenic differentiation after BMP induction (QRT-PCR adipocyte markers, Oil red O); conditions: 50 ng/mL BMP for 3 days, recovered at day 10
# Description: Total RNA was extracted from ASCs and purified by AllPrep DNA/RNA/Protein kit (Qiagen, Courtaboeuf, France) and dosed by nanodrop (Thermo Fischer, Courtaboeuf, France). RNA purity and integrity was checked using the Experion™ RNA Std Sens Reagents on the Experion automatisated system (Biorad). […] The reverse transcription (RT) was performed on 1 μg RNA by using high capacity cDNA reverse transcription kit (Applied Biosystem ™) and random hexamers in a final volume of 20 μL. The oligonucleotides for each target of interest, designed by using Primer Express software (PerkinElmer Life Sciences, Waltham, Mass.) were used (forward and reverse) and listed in table1. Quantitative PCR was performed on diluted cDNA (equivalent to 25 ng of starting purified RNA) using SSoFast EvaGreen Supermix (Biorad, Marnes-la-Coquette, France) with 500 nM of forward and reverse primers in a total volume of 20 μL on a CFX™ Real Time System (Biorad) following: 95° C., 3 minutes and 40 cycles of denaturation (95° C., 10 seconds) and primers hybridation and amplification (60° C., 30 seconds). […] Melt curves and appropriate No RT control were used to validate amplification specificity. Data were analysed on Bio-Rad CFX manager (threshold=0.2), exported to DataAssist Software v3.0 (Applied Biosystems). […] All real-time PCR reactions for the individual samples were performed in duplicate. […]
# [2] = system: standard ASCs; experiment: Osteoblastic marker expression after BMP induction; conditions: 50 ng/mL BMP for 3 days
# [3] = system: adipogenic progenitor cells (pAdSCs); experiment: Brown/beige marker UCP1 by western blotting and immuno-fluorescence; conditions: adipocytes from adipogenic progenitor cells; for UCP1 induction at protein level: western blotting and immuno-fluorescence
# Description: Proteins which were extracted by AllPrep DNA/RNA/Protein kit (Qiagen, Courtaboeuf, France) were subjected to the Western blot analysis. Briefly, eluate from DNA and RNA retention columns was precipitated by APP buffer (v/v), centrifuged (10,000 g, 10 min), washed by ethanol 70%, and air dried. Pellets were dissolved in ALO buffer (Qiagen, Courtaboeuf, France), sonicated and protein content was determined by Bicinchoninic Acid method (Pierce). After denaturation (95° C., 5 min), proteins were separated by 12% Tris-glycine-SDS polyacrylamide gel electrophoresis, and subsequently transferred to polyvinylidene difluoride membrane (PVDF). The proteins were detected with Rabbit polyclonal Ab anti-human SOX2 (ab97959; Abcam, Cambridge, UK), anti-human OCT4 (ab19857, Abcam), anti-human NANOG (SC33759; SantaCruz, Dallas, Tex.), anti-human PRDM16, anti-human UCP1, or with Mouse monoclonal Ab anti-human PPARG, anti-βActin and anti-RUNX2 (Abcam) antibodies. […] The Pactin was used as internal positive control (Sigma).
# After expansion, ASC- or EGM-2-derived cells were also cultured in chamber slides and after becoming confluent, cells were induced to differentiate into brown/beige adipocytes. After 7 days, the cells were stained with anti-UCP1 antibody (Alpha Diagnostic, San-Antonio, Tex.), and then with Alexa488-labeled goat anti-mouse secondary antibody (Invitrogen). The staining was read by using confocal microscope (Zeiss 510, Zeiss, Oberkochen, Germany).
# [4] = system: EGM2-derived Bone Marrow-MSCs; experiment: BMP7-induced differentiation of BM-MSCs (QRT-PCR)
# [5] = system: MSCs cultured in standard conditions; experiment: BMP7-induced differentiation of BM-MSCs cultured in standard conditions; conditions: BMP7 treatment
Molecule,adipocyte generation after BMP treatment [1],osteoblastic marker expression after BMP treatment [2],UCP1 induction at protein level [3],"UCP1 induction, BMP7 compared with BMP4 [3]","expression of adipogenic and brown/beige genes (UCP1, CIDEA) [4]",differentiation outcome of MSCs [5]
"Bone Morphogenetic Protein 4 (protein, UniProt P12644 293-408, looked up, recombinant human Bone Morphogenetic Protein 4 (Miltenyi), adipogenic/browning agent) Bone morphogenetic protein 4: SPKHHSQRARKKNKNCRRHSLYVDFSDVGWNDWIVAPPGYQAFYCHGDCPFPLADHLNSTNHAIVQTLVNSVNSSIPKACCVPTELSAISMLYLDEYDKVVLKNYQEMVVEGCGCR",generated clearly defined adipocytes,expressed high levels of osteoblastic markers,strongly induced,–,–,–
"BMP7: recombinant human BMP7 (RnD system's), pro-beige/brown adipocyte factor (protein, UniProt P18075 293-431, looked up) Bone morphogenetic protein 7: STGSKQRSQNRSKTPKNQEALRMANVAENSSSDQRQACKKHELYVSFRDLGWQDWIIAPEGYAAYYCEGECAFPLNSYMNATNHAIVQTLVHFINPETVPKPCCAPTQLNAISVLYFDDSSNVILKKYRNMVVRACGCH",generated clearly defined adipocytes,expressed high levels of osteoblastic markers,strongly induced,more potent and reliable,"triggered expressions of adipogenic and UCP1, CIDEA genes",differentiate into osteoblastic cells solely
